Source: US20140223597A1, “Mutated Hydroxyphenylpyruvate Dioxygenase, DNA Sequence and Isolation of Plants Which Are Tolerant To HPPD Inhibitor Herbicides” (Bayer CropScience AG, priority 2008, published 2014)
Residue numbers refer to the chain shown, from its start.

B1: Gly422 mutant Asn: Arabidopsis thaliana HPPD (SEQ ID NO 4) with Gly422 replaced by Asn, N-terminal His6-tag (protein, UniProt P93836 1-445, looked up, variant G422N)
4-hydroxyphenylpyruvate …: MGHQNAAVSENQNHDDGAASSPGFKLVGFSKFVRKNPKSDKFKVKRFHHIEFWCGDATNVARRFSWGLGMRFSAKSDLSTGNMVHASYLLTSGDLRFLFTAPYSPSLSAGEIKPTTTASIPSFDHGSCRSFFSSHGLGVRAVAIEVEDAESAFSISVANGAIPSSPPIVLNEAVTIAEVKLYGDVVLRYVSYKAEDTEKSEFLPGFERVEDASSFPLDYGIRRLDHAVGNVPELGPALTYVAGFTGFHQFAEFTADDVGTAESGLNSAVLASNDEMVLLPINEPVHGTKRKSQIQTYLEHNEGAGLQHLALMSEDIFRTLREMRKRSSIGGFDFMPSPPPTYYQNLKKRVGDVLSDDQIKECEELGILVDRDDQGTLLQIFTKPLGDRPTIFIEIIQRVGCMMKDEEGKAYQSGGCGGFGKNNFSELFKSIEEYEKTLEAKQLVG
modifications: N-terminal His6-tag
B2: Gly422 mutant Cys: Arabidopsis thaliana HPPD (SEQ ID NO 4) with Gly422 replaced by Cys, N-terminal His6-tag (protein, UniProt P93836 1-445, looked up, variant G422C)
4-hydroxyphenylpyruvate …: B1 4-hydroxyphenylpyruvate … with N422C
modifications: N-terminal His6-tag
B3: Gly422 mutant His: Arabidopsis thaliana HPPD (SEQ ID NO 4) with Gly422 replaced by His, N-terminal His6-tag (protein, UniProt P93836 1-445, looked up, variant G422H)
4-hydroxyphenylpyruvate …: B1 4-hydroxyphenylpyruvate … with N422H
modifications: N-terminal His6-tag
B4: Gly422 mutant Val: Arabidopsis thaliana HPPD (SEQ ID NO 4) with Gly422 replaced by Val, N-terminal His6-tag (protein, UniProt P93836 1-445, looked up, variant G422V)
4-hydroxyphenylpyruvate …: B1 4-hydroxyphenylpyruvate … with N422V
modifications: N-terminal His6-tag
B5: Asp (protein, UniProt P93836 1-445, looked up, variant G422D)
4-hydroxyphenylpyruvate …: B1 4-hydroxyphenylpyruvate … with N422D
B6: His (protein, UniProt P93836 1-445, looked up, variant G422H)
4-hydroxyphenylpyruvate …: B1 4-hydroxyphenylpyruvate … with N422H
B7: Leu (protein, UniProt P93836 1-445, looked up, variant G422L)
4-hydroxyphenylpyruvate …: B1 4-hydroxyphenylpyruvate … with N422L
B8: Met (protein, UniProt P93836 1-445, looked up, variant G422M)
4-hydroxyphenylpyruvate …: B1 4-hydroxyphenylpyruvate … with N422M
B9: Phe (protein, UniProt P93836 1-445, looked up, variant G422F)
4-hydroxyphenylpyruvate …: B1 4-hydroxyphenylpyruvate … with N422F
B10: Pro (protein, UniProt P93836 1-445, looked up, variant G422P)
4-hydroxyphenylpyruvate …: B1 4-hydroxyphenylpyruvate … with N422P
B11: Asn (protein, UniProt P93836 1-445, looked up, variant G422N)
4-hydroxyphenylpyruvate …: B1 4-hydroxyphenylpyruvate …
B12: Cys (protein, UniProt P93836 1-445, looked up, variant G422C)
4-hydroxyphenylpyruvate …: B1 4-hydroxyphenylpyruvate … with N422C
B13: Ser (protein, UniProt P93836 1-445, looked up, variant G422S)
4-hydroxyphenylpyruvate …: B1 4-hydroxyphenylpyruvate … with N422S
B14: Val (protein, UniProt P93836 1-445, looked up, variant G422V)
4-hydroxyphenylpyruvate …: B1 4-hydroxyphenylpyruvate … with N422V

Key:
[1] = test system: Arabidopsis thaliana HPPD; test: Assay for HPPD activity (4-HPP consumption, DNP photometric readout at 405 nm) in presence and absence of Tembotrione; assay type: biochemical; conditions: uninhibited enzyme activity set to 100%, 444 nM HPPD, 500 μM 4-HPP, 1 h room temperature
Experimental: (§1) HPPD produces homogentisate and CO2 from 4-HPP and O2. The enzyme is incubated with its substrate 4-HPP in the presence or absence of an inhibitor. L-ascorbic acid is present as a reductant to retain the active site iron in the ferrous form and Catalase is present to degrade toxic H2O2. After an incubation time of one hour, the reaction is stopped by addition of 2,4-Dinitrophenylhydrazine (DNP). DNP forms a hydrazone derivative with the remaining 4-HPP molecules in the assay mixture which appears in an amber-brown colour at an alkaline pH. The amount of unconsumed 4-HPP is measured photometrically at 405 nm.
(§2) For preparation of inhibitor stock solutions, Tembotrione (MW=440.82) and DKN (Mw=359.3) are dissolved in DMSO to a concentration of 10 mM. […] Further dilutions are made with ddH2O to obtain the inhibitor solutions used in the assay (5 μM, 10 μM and 20 μM). […] A 2% DMSO solution provides for half of the assay mixture in uninhibited reactions to normalize a possible inhibiting effect of DMSO.
(§3) The assay is designed for a HPPD concentration of 444 nM on a monomeric basis and a 4-HPP concentration of 500 μM. This corresponds to 44.4 pmol HPPD and 50 nmol 4-HPP in a 100 μL-assay mixture, resulting in an approximate 1000-fold excess of substrate in relation to the enzyme. The calculated theoretical molecular weight of an AtHPPD subunit is 49.515 kD which results in 2.2 μg HPPD per assay mixture. The calculated theoretical molecular weight of a PfHPPD subunit is 41.205 kD, resulting in 1.8 μg HPPD per assay mixture. The enzyme solution provides for one quarter of the assay mixture volume, so enzyme stock solutions are produced by diluting AtHPPD solutions to 88 μg*mL^−1 with 50 mM TRIS buffer; PfHPPD solutions are diluted to 72 μg*mL^−1.
(§4) The inhibitor concentrations (2.5 μM, 5 μM and 10 μM) provide for 5-fold, 10-fold and 20-fold excess of inhibitor compared to the amount of enzyme. A buffer/substrate solution is prepared which provides for one quarter of the assay mixture. 2.5 mL of buffer/substrate solution contain 1 mL 1 M TRIS buffer, 500 μL 10 mM 4-HPP solution, 500 μL 200 mM L-ascorbic acid solution, 13 μL Catalase solution and 487 μL ddH2O. The assay is carried out in Greiner F-bottom 96 well microplates and all reactions are carried out as triplicates. The controls are carried out sixfold per plate and contain either 25 μL 50 mM TRIS instead of HPPD solution (corresponding to 0% consumption of 4-HPP) or a buffer/substrate solution that contains 500 μL 1 M TRIS instead of 500 μL 10 mM 4-HPP (corresponding to 100% consumption of HPP). The reaction is started by addition of 25 μL HPPD solution to a mixture of 50 μL of the respective inhibitor solution or 50 μL 2% DMSO and 25 μL buffer/substrate solution. The reaction is allowed to proceed for 1 h at room temperature. The reaction is stopped and coloration of 4-HPP is induced by addition of 50 μL 0.04% DNP/3.8 N HCl solution. After 15 min, addition of 100 μL 5 N KOH leads to the colour shift of the hydrazone derivative. Photometric measurement with a BMG FLUOstar Galaxy microplate reader is carried out immediately at 405 nm and data obtained is used for analysis of HPPD activities in presence and absence of an inhibitor.

[2] = test system: Pseudomonas fluorescens HPPD; test: as above; assay type: biochemical; conditions: uninhibited enzyme activity set to 100%, 444 nM HPPD, 500 μM 4-HPP, 1 h room temperature
Experimental: as §1, §2, §3, §4

Molecule	Relative activity (in percentage) of At HPPD mutants in presence of Tembotrione ([1]; […] Tembotrione) [%]	Relative activity (in percentage) of At HPPD mutants in presence of Tembotrione ([1]; 5 μM Tembotrione)	Relative activity (in percentage) of At HPPD mutants in presence of Tembotrione ([1]; 10 μM Tembotrione)	Relative activity (in percentage) of Pf HPPD mutants in presence of Tembotrione ([2]; 5 μM Tembotrione) [%]	Relative activity (in percentage) of Pf HPPD mutants in presence of Tembotrione ([2]; 10 μM Tembotrione) [%]	Relative activity (in percentage) of Pf HPPD mutants in presence of Tembotrione ([2]; […] Tembotrione) [%]
B1	39					
B2	44					
B3	51	about 40%	about 40%			
B4	43					
B5	20	7%	10%	9	0	18
B6	50	31%	40%	13	11	26
B7	31	23%	14%	0	0	4
B8	18	13%	12%	7	10	16
B9	30	16%	11%	12	3	33
B10	0	0%	0%	4	0	5
B11	39	26%	15%			
B12	44	27%	19%			
B13	18	4%	0%			
B14	43	22%	14%			
